Laboratory results published in patent US7026443.

target: HLA-A*0301 (human); assay: competition with 125I-labelled standard peptide for purified HLA, gel filtration; conditions: not given

Row | Binder | relative binding ratio (IC50 of standard peptide / IC50 of test peptide) | relative binding ratio (IC50 of standard peptide / IC50 of test peptide) (ratio to standard peptide) | binding affinity ratio (IC50 of standard peptide / IC50 of test peptide) (ratio relative to standard peptide)
1 | NTGLYNLLIR (modifications not checked) [HPV18 E6 peptide … (position 95, 10 amino acids)] | 0.0002 | – | –
2 | TMLCMCCK (modifications not checked) [HPV18 E7 peptide TMLCMCCK (position 60, 8 amino acids)] | 0.024 | – | –
3 | LLIRCLRCQK (modifications not checked) [HPV18 E6 peptide … (position 101, 10 amino acids)] | 0.047 | – | –
4 | EVFEFAFK (modifications not checked) [HPV18 E6 peptide EVFEFAFK (position 43, 8 amino acids)] | 0.0025 | – | –
5 | SVYGDTLEK (modifications not checked) [HPV18 E6 peptide … (position 84, 9 amino acids)] | 0.08 | – | –
6 | SIPHAACHK (modifications not checked) [HPV18 E6 peptide … (position 59, 9 amino acids)] | 0.017 | – | –
7 | GLSFTDLVR (modifications not checked) [HPV45 E1 209 …] | – | 0.0009 | –
8 | DSVYGDTLEK (modifications not checked) [HPV18 E6 peptide … (position 83, 10 amino acids)] | 0.0005 | – | –
9 | PLNPAEKLR (modifications not checked) [HPV18 E6 peptide … (position 111, 9 amino acids)] | 0.0002 | – | –
10 | NSNAAAFLK (modifications not checked) [HPV45 E1 379 …] | – | 0.0057 | –
11 | KLRHLNEKR (modifications not checked) [HPV18 E6 peptide … (position 117, 9 amino acids)] | 0.025 | – | –
12 | GVLILALLR (modifications not checked) [HPV45 E1 265 …] | – | 0.0058 | –
13 | LIRCLRCQK (modifications not checked) [HPV18 E6 peptide … (position 102, 9 amino acids)] | 0.019 | – | –
14 | LTEVFEFAFK (modifications not checked) [HPV18 E6 peptide … (position 41, 10 amino acids)] | 0.0001 | – | –
15 | PLCPEEKQR (modifications not checked) [HPV31 E6 peptide … (position 109, 9 amino acids; Seq. Id. No. 10308)] | 0.0002 | – | –
16 | DIEITCVYCK (modifications not checked) [HPV18 E6 peptide … (position 27, 10 amino acids)] | 0.0089 | – | –
17 | MLIQPPKLR (modifications not checked) [… (HPV31 E1, position 285, 9 amino acids)] | – | – | 0.0005
18 | LVRNFKSDK (modifications not checked) [HPV45 E1 215 …] | – | 0.0005 | –
19 | LILALLRYK (modifications not checked) [HPV45 E1 267 …] | – | 0.27 | –
20 | CIDFYSRIR (modifications not checked) [HPV18 E6 peptide … (position 68, 9 amino acids)] | 0.0001 | – | –
21 | WLQPLADAK (modifications not checked) [… (HPV31 E1, position 489, 9 amino acids)] | – | – | 0.0005

target: HLA-A*1101 (human); assay: as above; conditions: not given

Row | Binder | relative binding ratio (IC50 of standard peptide / IC50 of test peptide) | relative binding ratio (IC50 of standard peptide / IC50 of test peptide) (ratio to standard peptide) | binding affinity ratio (IC50 of standard peptide / IC50 of test peptide) (ratio relative to standard peptide)
22 | NTGLYNLLIR (modifications not checked) [HPV18 E6 peptide … (position 95, 10 amino acids)] | 0.0013 | – | –
23 | TMLCMCCK (modifications not checked) [HPV18 E7 peptide TMLCMCCK (position 60, 8 amino acids)] | 0.024 | – | –
24 | LLIRCLRCQK (modifications not checked) [HPV18 E6 peptide … (position 101, 10 amino acids)] | 0.12 | – | –
25 | EVFEFAFK (modifications not checked) [HPV18 E6 peptide EVFEFAFK (position 43, 8 amino acids)] | 0.018 | – | –
26 | SVYGDTLEK (modifications not checked) [HPV18 E6 peptide … (position 84, 9 amino acids)] | 0.23 | – | –
27 | SIPHAACHK (modifications not checked) [HPV18 E6 peptide … (position 59, 9 amino acids)] | 0.12 | – | –
28 | GLSFTDLVR (modifications not checked) [HPV45 E1 209 …] | – | 0.0025 | –
29 | DSVYGDTLEK (modifications not checked) [HPV18 E6 peptide … (position 83, 10 amino acids)] | 0.0051 | – | –
30 | PLNPAEKLR (modifications not checked) [HPV18 E6 peptide … (position 111, 9 amino acids)] | 0.0005 | – | –
31 | NSNAAAFLK (modifications not checked) [HPV45 E1 379 …] | – | 0.37 | –
32 | KLRHLNEKR (modifications not checked) [HPV18 E6 peptide … (position 117, 9 amino acids)] | 0.0005 | – | –
33 | GVLILALLR (modifications not checked) [HPV45 E1 265 …] | – | 0.14 | –
34 | LIRCLRCQK (modifications not checked) [HPV18 E6 peptide … (position 102, 9 amino acids)] | 0.0012 | – | –
35 | LTEVFEFAFK (modifications not checked) [HPV18 E6 peptide … (position 41, 10 amino acids)] | 0.036 | – | –
36 | PLCPEEKQR (modifications not checked) [HPV31 E6 peptide … (position 109, 9 amino acids; Seq. Id. No. 10308)] | 0.0005 | – | –
37 | DIEITCVYCK (modifications not checked) [HPV18 E6 peptide … (position 27, 10 amino acids)] | 0.0021 | – | –
38 | MLIQPPKLR (modifications not checked) [… (HPV31 E1, position 285, 9 amino acids)] | – | – | 0.0014
39 | LVRNFKSDK (modifications not checked) [HPV45 E1 215 …] | – | 0.0002 | –
40 | LILALLRYK (modifications not checked) [HPV45 E1 267 …] | – | 0.18 | –
41 | CIDFYSRIR (modifications not checked) [HPV18 E6 peptide … (position 68, 9 amino acids)] | 0.0001 | – | –
42 | WLQPLADAK (modifications not checked) [… (HPV31 E1, position 489, 9 amino acids)] | – | – | 0.0002

target: HLA-A*1101 (human); assay: competition with 125I-labelled standard peptide for purified HLA-A*1101, gel filtration; conditions: not given

Row | Binder | binding affinity ratio (IC50 of standard peptide / IC50 of test peptide) (ratio to standard peptide) | binding affinity ratio (IC50 of the standard peptide / IC50 of the test peptide) | relative binding ratio (IC50 of standard peptide / IC50 of test peptide) | binding affinity ratio (IC50 of standard peptide / IC50 of test peptide)
43 | NINAGTDSR (modifications not checked) [HPV16 E1 567 …] | 0.0002 | – | – | –
44 | NAKAAMLAK (modifications not checked) [HPV16 E1 202 …] | 0.0031 | – | – | –
45 | TAQEAKQHR (modifications not checked) [… (HPV16 E1, position 72, 9 amino acids)] | – | 0.0025 | – | –
46 | NVLKTSNAK (modifications not checked) [… (HPV16 E1, position 196, 9 amino acids)] | – | 0.0015 | – | –
47 | YCKQQLLRR (modifications not checked) [… (HPV16 E6, position 39, 9 amino acids)] | – | – | 0.0001 | –
48 | EGTGCNGWFY (modifications not checked) [HPV16 E1 11 …] | – | – | 0.0002 | –
49 | AICIEKQSR (modifications not checked) [HPV16 E1 112 …] | – | – | 0.0057 | –
50 | SLFGMSLMK (modifications not checked) [… (HPV16 E1, position 484, 9 amino acids)] | – | 7.1 | – | –
51 | GDTPEWIQR (modifications not checked) [HPV18 E1 position 341 peptide …] | – | – | – | 0.0002
52 | AGHYRGQCH (modifications not checked) [HPV18 E6 131 …] | – | – | – | 0.0002
53 | ELRHYSDSVY (modifications not checked) [HPV18 E6 77 …] | – | – | – | 0.0002
54 | SVICFVNSK (modifications not checked) [… (HPV16 E1, position 497, 9 amino acids)] | – | 0.0002 | – | –
55 | WTGRCMSCCR (modifications not checked) [… (HPV16 E6, position 139, 10 amino acids)] | – | – | 0.0008 | –
56 | CVQSTHVDIR (modifications not checked) [… (HPV16 E7, position 68, 10 amino acids)] | – | – | 0.0001 | –
57 | TGRCMSCCR (modifications not checked) [… (HPV16 E6, position 140, 9 amino acids)] | – | – | 0.0001 | –
58 | RLKAICIEK (modifications not checked) [… (HPV16 E1, position 109, 9 amino acids)] | – | 0.051 | – | –
59 | PLCPEEKQR (modifications not checked) [… (HPV16 E6, position 116, 9 amino acids)] | – | – | 0.0005 | –
60 | DSIPHAACH (modifications not checked) [HPV18 E6 58 …] | – | – | – | 0.0002
61 | SCCRSSRTR (modifications not checked) [… (HPV16 E6, position 145, 9 amino acids)] | – | – | 0.0001 | –
62 | CCKCDSTLR (modifications not checked) [… (HPV16 E7, position 58, 9 amino acids)] | – | – | 0.0001 | –

same assay, conditions: remark: other sources report otherwise

Row | Binder | relative binding ratio (IC50 of standard peptide / IC50 of test peptide)
63 | IVCPICSQK (modifications not checked) [… (HPV16 E7, position 89, 9 amino acids)] | 0.0065
64 | DLQPETTDLY (modifications not checked) [… (HPV16 E7, position 14, 10 amino acids)] | 0.0002
65 | GIVCPICSQK (modifications not checked) [… (HPV16 E7, position 88, 10 amino acids)] | 0.067

target: HLA-A*0301 (human); assay: competition with 125I-labelled standard peptide for purified HLA-A*0301, gel filtration; conditions: not given

Row | Binder | relative binding ratio (IC50 of standard peptide / IC50 of test peptide) | relative binding ratio (IC50 of standard peptide / IC50 of test peptide) (ratio to standard peptide)
66 | SIPHAACHK (modifications not checked) [HPV18 E6 peptide … (position 59, 9 amino acids)] | 0.017 | –
67 | PLNPAEKLR (modifications not checked) [HPV18 E6 peptide … (position 111, 9 amino acids)] | 0.0002 | –
68 | KLRHLNEKR (modifications not checked) [HPV18 E6 peptide … (position 117, 9 amino acids)] | – | 0.025

target: HLA-A*0301 (human); assay: not given; conditions: not given

Row | Binder | relative binding ratio (IC50 of standard peptide / IC50 of test peptide) | relative binding ratio (IC50 of standard peptide / IC50 of test peptide) (ratio to standard peptide)
69 | NTGLYNLLIR (modifications not checked) [HPV18 E6 peptide … (position 95, 10 amino acids)] | 0.0002 | –
70 | LLIRCLRCQK (modifications not checked) [HPV18 E6 peptide … (position 101, 10 amino acids)] | 0.047 | –
71 | EVFEFAFK (modifications not checked) [HPV18 E6 peptide EVFEFAFK (position 43, 8 amino acids)] | – | 0.0025
72 | SVYGDTLEK (modifications not checked) [HPV18 E6 peptide … (position 84, 9 amino acids)] | 0.08 | –
73 | DSVYGDTLEK (modifications not checked) [HPV18 E6 peptide … (position 83, 10 amino acids)] | – | 0.0005
74 | LIRCLRCQK (modifications not checked) [HPV18 E6 peptide … (position 102, 9 amino acids)] | 0.019 | –
75 | LTEVFEFAFK (modifications not checked) [HPV18 E6 peptide … (position 41, 10 amino acids)] | 0.0001 | –
76 | DIEITCVYCK (modifications not checked) [HPV18 E6 peptide … (position 27, 10 amino acids)] | – | 0.0089
77 | CIDFYSRIR (modifications not checked) [HPV18 E6 peptide … (position 68, 9 amino acids)] | – | 0.0001
